# Source: IntAct's records for PubMed 22382979
# B1: ATP-dependent DNA helicase SRS2 (Saccharomyces cerevisiae), P12954 (parent)
# chain: MSSNNDLWLHLVSQLNTQQRAAALFDYTRGLQVIAGPGTGKTKVLTSRVAYLILHHHIHPRDIIVTTFTNKAANEMKERLQEMLRGAGVNISELLIGTFHSICLKILYRFGHLVDLQKDWRIIDEKEIDVILDDMIEKVPDQIRDYASSITRKVNLCMPSKNGDEWTIHPKLIKKQISKLKSNAILPEEYILDSNHDAALGYFYQIYQSELSKKNTLDFDDLLMYTFRLLTRVRVLSNIKHVLVDEFQDTNGIQLDLMFLFAKGNHHLSRGMTIVGDPDQSIYAFRNALAHNFLEMGRKCPIEYSTIILVENYRSSQKILNTSEILITQQNKGRQNRAPLRAQFDLDFPPVYMNFPAYFLEAPSLVRELLYLKALPNLFTFNDFAILVRQRRQIKRIESALIEHRIPYKIIRGHSFWDSKETRAMLNLLKLIFSPNDKHAILASLLYPARGLGPATGEKIKNALDTLATDVSCFQILKDISSKKIMLDIPTKGRSVIADFISMIENCQLLLQSTLLGGLSDLFDKLYELSGLKYEYLYKDGKKKNDQLEKSEPNLLNARHKNIELLKNYFLALLSKSESSDKEKNEAIKAATDEAEPIENKVITPKEYLRNFFNSLSLHSDAAEEEESESNKDAKIKREKNGFVTISTIHGAKGLEWPVVFIPGCEEGIIPCVFNDDKKDESEEDEEEDQENSKKDASPKKTRVLSVEDSIDEERRMFFVAQTRAKYLLYLSNTVTVEDVDRPRIASRFLTTDLIKAMSDSQKLFESTNSIKKLYRILNKKPPAEDDKLFSLDQLRKDYNQFIENRRERMIWQGIQMNDVYGIQLSRNKLLGSVSDFTSAADQLRLETQNSIFPQKKLIEKSRPSKINGNYAPKSRVKSPEKRYAPETTSFHSPTKKKVYAPQYVSTTNVPSRQEFHSSTGKNIPFLRREDRSITDISPRSSTRSLKGASPNKTSHMSDDLMRPSPTRKDKVTRNIHFATAGTFRIETQSNVDELHPPEYSNKSGQSLTSSEFSGFSSACSNSDQPTNLIEDINNELDLSDEELLNDISIERRRELLGSKKTKKIKPKTRNRKSKRGDKVKVEEVIDLKSEFEEDDSRNTTAAELLHNPDDTTVDNRPIISNAKFLADAAMKKTQKFSKKVKNEPASSQMDIFSQLSRAKKKSKLNNGEIIVID
# B2: Proliferating cell nuclear antigen (Saccharomyces cerevisiae), P15873 (parent)
# chain: MLEAKFEEASLFKRIIDGFKDCVQLVNFQCKEDGIIAQAVDDSRVLLVSLEIGVEAFQEYRCDHPVTLGMDLTSLSKILRCGNNTDTLTLIADNTPDSIILLFEDTKKDRIAEYSLKLMDIDADFLKIEELQYDSTLSLPSSEFSKIVRDLSQLSDSINIMITKETIKFVADGDIGSGSVIIKPFVDMEHPETSIKLEMDQPVDLTFGAKYLLDIIKGSSLSDRVGIRLSSEAPALFQFDLKSGFLQFFLAPKFNDEE
# B3: Proliferating cell nuclear antigen (Saccharomyces cerevisiae), P15873 (parent)
# chain: B2 chain
# partner: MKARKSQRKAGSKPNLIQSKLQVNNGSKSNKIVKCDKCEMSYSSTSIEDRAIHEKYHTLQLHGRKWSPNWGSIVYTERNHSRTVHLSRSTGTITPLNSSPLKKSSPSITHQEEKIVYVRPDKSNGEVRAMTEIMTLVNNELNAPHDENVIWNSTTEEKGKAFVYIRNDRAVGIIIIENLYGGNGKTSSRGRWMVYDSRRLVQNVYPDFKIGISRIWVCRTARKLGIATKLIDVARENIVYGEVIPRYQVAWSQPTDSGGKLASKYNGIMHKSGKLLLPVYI
# Variants of: B1
# Conditions: with pcna_yeast POL30, P15873
row,Variant,effect of a mutation on the interaction
1,L1156A,decreasing interaction
2,Q1149E;I1152A,decreasing interaction
3,I1152A;L1156A,decreasing interaction
4,I1152A,decreasing interaction
5,F1153A,decreasing interaction
6,D1151A,decreasing interaction
7,Q1155E,decreasing interaction
8,Q1149E,decreasing interaction

# Variants of: B1
# Conditions: with smt3_yeast SMT3, Q12306
# smt3_yeast SMT3, Q12306, sequence (Q12306 whole entry): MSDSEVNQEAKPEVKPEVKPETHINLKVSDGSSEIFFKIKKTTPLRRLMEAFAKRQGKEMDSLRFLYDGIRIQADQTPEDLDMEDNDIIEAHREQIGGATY
row,Variant,effect of a mutation on the interaction
1,L1156A,decreasing interaction
2,Q1149E;I1152A,decreasing interaction
3,I1152A;L1156A,decreasing interaction
4,I1152A,decreasing interaction

# Variants of: B2
# Conditions: with srs2_yeast SRS2, P12954
row,Variant,effect of a mutation on the interaction
1,F125A;L126A;K127A;I128A,decreasing interaction

# Variants of: B3
# Conditions: with eco1_yeast ECO1, P43605
row,Variant,effect of a mutation on the interaction
1,F125A;L126A;K127A;I128A,decreasing interaction
